The source of these data is the DeepSol protein solubility set.

A short description of this data set: soluble on expression in E. coli; label from the status in PepcDB or PDB records.
Regarding “SLKPIMYNEKRGVSVMDIKLQQTQILKPQLTQELKQAITLLGYNSAELAGYIDELSLENPLIERKETDTPPLSYHKTNKNRMKEQDVSQQIRLTRKTLQDSLKQQAIDMKLSDAEKKIFNYLIYSLDSNGYLKEDIQAAADHVSASLEETEAVLAKLQSLEPAGIGARSLQECILLQLRRLPERNEQAEWIAGAYFELFARKNWKALTLQTGIPLKDIQDIFDMISALDPRPGLRYAHEEPGFYVEPDIFNTVKNGIIQARLNSRSFPDIQLHAHYRPMLSAAGCRDVQQVPF”, the “soluble on expression in E. coli” value was “soluble”.
As to “MKFDPQKYRELAEKDFEAAWKAGKEILAERSPNELYPRVGFSFGKEHPLFATIQRLREAYLSIGFSEVVNPLIVEDVHVKKQFGREALAVLDRCFYLATLPKPNVGISAEKIRQIEAITKREVDSKPLQEIFHRYKKGEIDGDDLSYLIAEVLDVDDITAVKILDEVFPEFKELKPISSTLTLRSHMTTGWFITLSHIADKLPLPIKLFSIDRCFRREQGEDATRLYTYFSASCVLVDEELSVDDGKAVAEALLRQFGFENFRFRKDEKRSKYYIPDTQTEVFAFHPKLVGSSTKYSDGWIEIATFGIYSPTALAEYDIPYPVMNLGLGVERLAMILYGYDDVRKMVYPQIHGEIKLSDLDIAREIKVKEVPQTAVGLKIAQSIVETAEKHASEPSPCSFLAFEGEMMGRNVRVYVVNENENTKLCGPAYANEVVVYKGDIYGIPKTKKWRSFFEEGVPTGIRYIDGFAYYAARKVEEAAMREQEEVKVKARIVENLSDINLYIHENVRRYILWKKGKIDVRGPLFVTVKAEIE”, the “soluble on expression in E. coli” value is given as “soluble”.
With “MQVQAPRRTPKIQQVVEFVESLDDNHRLKGKEDGETYLIEPNAISRIYIENRQVLAETTQGDYHLGLRLYQVLEILPAYFIKISQSEIVNLKEIERFNITPNRLVEIHLKTRKLATHHAVTSKQ” the entry was “not soluble”; with “MGSDKIHHHHHHMKGIEIVNYGGPEVAKVRTFSSPVRRSGEVMIQVVASSINPVDIKYMTPETIQKIPSFPAILGWDIAGIIIEADKNSNFSAGERVVAFHPQGSWQQLVTASENQVVKLPDNIDFISGGSIPLAASTALQALRRLRLEPGERLLVTGAAGSVGYYALQFALKMGVKASGLVRNKNQKMSINLLDTEIYTNDDPIPEFDAVFDTAGVLNRIDVIHKGGRLVTVSDEQIDPQVLKHTSFAEHNYVRVNKEDLEEIVHLVSEAKIETRVAKIYSFNNVQEALAQAIKSGNNGKVMLIF”, “not soluble”.
With “TFGEEESEACKKAFDLSPFPLLSKQKEAVFTAIESSISAIIGGAGTGKTTVLHAVLTAFEALGYVSDASLCPDKTTTNHNIKTMALSCRAAKRMRDCINKSSDGSRRERQISATSIAQFIHQTVIEDAEGKYLVVIDEASMLDVATMYNIITNIHPNVRILLVGDHYQLPPI” the entry was “not soluble”; with “MAKRKLTQNQTRRIQSNNAKTLHRHKKKEIEWSDEMLGESQEGVVVTRYSIHADVENEQGEIYRCNLRRTLSSLVVGDKVVWRKGNEQLQGVSGVIEAIHPRENEISRPDYYDGLKPIAANIDRIIIVSAVLPTLSLNIIDRYLVVCEIAGITPLIVLNKVDLLAQEQRQEIEDQLKIYQDIGYEILMISAKSGENMEKLTALLAQGTAIFVGQSGVGKSSLINHILPSVNAQVGDVSETSGLGQHTTTSSRLYHLPQGGNLIDSPGIREFGLWHLDAEQITKGYREFQYVLGTCKFRDCKHLSDPGCALREAVEQGKISPVRYDNYHRLIESLSETKSQRHFSLV”, “not soluble”.
The value for “MGSDKIHHHHHHMAEFPASLLILNGKSTDNLPLREAIMLLREEGMTIHVRVTWEKGDAARYVEEARKFGVATVIAGGGDGTINEVSTALIQCEGDDIPALGILPLGTANDFATSVGIPEALDKALKLAIAGDAIAIDMAQVNKQTCFINMATGGFGTRITTETPEKLKAALGSVSYIIHGLMRMDTLQPDRCEIRGENFHWQGDALVIGIGNGRQAGGGQQLCPNALINDGLLQLRIFTGDEILPALVSTLKSDEDNPNIIEGASSWFDIQAPHDITFNLDGEPLSGQNFHIEILPAALRCRLPPDCPLLR” was “not soluble”; that for “MTIRNFAIEYDAINDRNTFSNGDTLAGRVIVEVSKQTKITSLTVQAKGKANVAWTETHGEESVTYWDKEKYFSQTQSVLPEDKADGSVTLVAGRHVFPFAFQLPNQSLPSSFKGVHGKIHYRLMAKLSRSFRAASKAEAKFTFVARADYDTSTLTTPQHGSKDKNVMFFASGNISMDIFLPKTGYQQGEGLIVNGEIVNSSTRKIVPKYIIYQKQSFFAGGQRAVHTTEILKEKGEPLVSSTRENLYKVLPLPPEISSTIHNCRILKVEYRLKVILDVSFTKNPVIKLPFIVLPLCNETPPKAIEEGLYPDLAKMKISN” was “soluble”; that for “LTQPLDHRHPEKGSFRQRVIVGHVGYDRPTVIVTEGYGAGYALRPTYREELSELFDANMIFVEHRYFLESTPEPCDWQYLTAENSAEDLHAVTTAFKTLYPGKWISTGISKGGQTSLLYRVFFPDDVDVSVPYVAPLCYAREDGRHEPFLRRVGTEADRKKIEDFQLEVLKRKARLLPRFEKMCTEKNYTFRAPLEEIYDFCVLEYSFSIWQWGTDIRSIPETSASDDTLLDHLLAISGPSYFIVDSPTLSFFVQAARELGYYGYDIAPFKPYLSIKTSKDYLRRLMLPEDMRKMKFDKTLSNKIVRFLKKNDPKMIFIYGQNDPWTAAGVTWLKNKKNIHVFVEPGGSHLARIGTMSEDQKQKVMSLLRGWLEE” was “not soluble”.
With “LLLGDEAIAQAALDAGLSGVYAYPGTPSTEITEYIQMAPITSERNIHNRWCANEKTAMEAALGMSFVGKRALVCMKHVGMNVAADCFINSAITGVKGGLIVVAADDPSMHSSQNEQDSRFYGDFSLIPMYEPSNQQEAYDMVYNGFEFSEKIGEPILMRMVTRLAHSRSGVENKAQKPQNEISFSEDPRQFILLPGNARKRYKVLLTRQEEFIKASEESPYNRYIDGPNKKTGIVACGIGYNYLMENYPEGCEYPVLKVGQYPLPKKQLMQLIDACDEILVLEDGQPFVEKQLKGYLGIGLKVKGRLDGTLSQDGELNPDTVARALGKENSSEFNVPNIVEMRPPALCEGCGHRDMYITLTQVLKEEYPTHKVFSDIGCYTLGANAPFNAINSCVDMGASITMAKGASDGGLHPAVAVIGDSTFTHSGMTGLLDCVNENANVTIVISDNETTAMTGGQDSAGTGRLEAICAGLGVDPAHIRVVVPLK”, the “soluble on expression in E. coli” value was “not soluble”.
As to “MRGSHHHHHHTDPALRADIIFYHPTFDTQWWIEALRKAIPQARVRAWKSGDNDSADYALVWHPPVEMLAGRDLKAVFALGAGVDSILSKLQAHPEMLNPSVPLFRLEDTGMGEQMQEYAVSQVLHWFRRFDDYRIQQNSSHWQPLPEYHREDFTIGILGAGVLGSKVAQSLQTWRFPLRCWSRTRKSWPGVQSFAGREELSAFLSQCRVLINLLPNTPETVGIINQQLLEKLPDGAYLLNLARGVHVVEDDLLAALDSGKVKGAMLDVFNREPLPPESPLWQHPRVTITPHVAAITRPAEAVEYISRTIAQLEKGERVCGQVDRARGYGLCGR”, the “soluble on expression in E. coli” value is given as “soluble”.
With “MRNFDLSPLYRSAIGFDRLFNHLENNQSQSNGGYPPYNVELVDENHYRIAIAVAGFAESELEITAQDNLLVVKGAHADEQKERTYLYQGIAERNFERKFQLAENIHVRGANLVNGLLYIDLERVIPEAKKPRRIEIN” the entry was “not soluble”; with “MAHHHHHHMATVYTSVPGKDFAKGVTLDEANRIVRVDAGLPLLSALQVGMIVRSIGGVPVGDGRCEQARHHSNRSQVLVVLGAPPKDEFDLCSDDDDAANLKPPSTLPPLPPEFNNSVAQNSSGVVYEATVKCGEGGCVIIMCEGANPALAITLAAEKAKAEVMYIDTVARMKTRQTLENAGEVLKKSLEKGLWIYVEQATKSITLLRQISDCIMEVRAAGKMHAQSRVLLMCEPHPHFPEALMRGSVTLRSRLQNNNMAEVDIREDLSESAHRKQAIHGDDVASSETAAKPEVTKTRKKVRISNQVNIVHLEKSTFMEMSASAQPPLESGTSHDGISRVAKYSFGSNENLISLSYVRDHRFAIGTNSGYVVLIDRNGLPLIQFRPHKACIWDVSFSSQFDFSTACEDGTSVIYKYSLANQELTTVSVASFQNDVFAVTYANPNDVNSGVLSGGLSATVCVLHSDRQNSSFIACRTSIQAMCATQMNQVIVGGGTGACTLIDTNHCVVTDITHAHNKKVPAVGTHGNVAVTGGFDCVLRLWDVRNGFHLTSQRQLNEVITAVAMNERYISACSGSSLYVWDPRKMDRTLAVKANAWKDLTRGLVLDGSTIVTASVDGVARIWEVS”, “not soluble”.
The value for “MGSDKIHHHHHHMSTIQIKQLNFAYDGQAPLFTNTTLDLDTNWHLGLVGRNGRGKTTLLRILQQALPYSGTVTVPLQLQYFPQTLDETQLTLTAAQAITDVAQWQLERELNLLHADPNILWRPFVDLSGGEQTKVRLALLFIQDNGVALIDEPTNHLDLRSRRQVAAYLQQKPGFIVVSHDRDFLDSITDHTLAIQRQQITLYQGNFSTFMTEKERQDQTELAKNGQLKTEITRLKRTTHDKKVWAENKEKSIYGNPHIKDSGHNAGRGFISARAARTMKKSKNLEHRMTKEIDEKESLLKNLEKVDPLTMLPVSTHHHQLVVAEKVQVGFDQPLFQPISFTLTRGDRIAIVGDNGSGKSTLIRALLKQFTGMQSGHLTLAPVSLSLVRQQYTDNRGTLVDFAKQHQLSRETLLNNLRKLGMPRADFNTSIEHLSMGQQKKVELARSLATPGALYVWDEPLNYLDTYNQDQLVAAIKHYQPTMLFVEHDEHFIEQVATKIIRLQP” was “not soluble”; that for “MNKMLYGWLLAACCGLPPAFAGDSVDVLAQPALHGPQALRAVLQDVARADARLVAVGERGVVLLSDDNGATWRQATAVPVGVSLTAVQFIDARNGWAVGHAGVVLHSQDGGEHWSVQLDGKRAAALEVQAAEAAADERRLAAAQRLLADGADKPLLALNFTDARNGLVVGAYGVAMRTDDGGRSWQSEIGRLPNGRGLHLYALARQGNQVYIAGEQGLLLRSRDGGEHYEALHGPYDGSYFAATVLPDGRLLLGGLRGSLFASDDGGDSFQALANPTPASINGLRVAGGQLLLANQAGMLLRSGLGAFAAQPVAVSDGLPLTAATTAADGSIVAVGMAGARRLEPSSLEHHHHHH” was “not soluble”; that for “MGSDKIHHHHHHMNSKIYYFSGTGNSLVVSNILKETLNGSKEVIPLAIHRKENNIDINEDILVIVFPVYFADVPDIVKSFVEKLNFNINTHIYAIATCNGVAGHSLFTIDKLLKKRGKKLSAGFLINMPGNALITPPDVEEERLKNQTNRVAEIAKCINNLEIGNIEGKNNLKSHIDSVVLRLVGKNMQIATTKFFAENKCNGCGTCKRVCPVENISIVDKKPKWGNECERCLACFHWCPKEAINVKKSFLTNRKKYHHPDITVKDIFLDK” was “not soluble”.
The value for “TVRLMVDLRHHAAMLEEENDERTRAEQKLAETNVFLNSVVDGVAEPMVVVGLDRRVIMTNRAARDFFQISDVGSDEACHRLIHHRDTPCVREEGMQCPLLDVRTAKRPVIATQEHRDRSGDKRVVEVMTSPLLGSD” was “not soluble”.
For the sequence “RTGRELLDMCRASGHSVAGLMMRNELTWRGAAEIEQGLDRIWEVMQECVARGCGIGHPEADGDLPGPLKVRRRAPELYRALTQRAERTLSDPLSVMDWVNLYAMAVNEENAAGGRVVTAPTNGAAGIIPAVLHYYDRFVPAANRAGVHDFLLTAAAIGLLYKYNASLSGAEVGCQGEVGVACSMAAGALAAVQGGSVEQVENAAEIGMEHNLGLTCDPVGGLVQIPCIERNAMASVKAVNAARMALRGDGHHYVSLDSVIKTMRETGADMKTKYKETARGGLAVN”, the “soluble on expression in E. coli” value is recorded as “not soluble”.
